B1: chimeric mouse/human IgG1 anti-platelet mAb (7E3) (antibody, INN chains, looked up, V domains shown)
VH: EVQLQQSGTVLARPGASVKMSCEASGYTFTNYWMHWVKQRPGQGLEWIGAIYPGNSDTSYIQKFKGKAKLTAVTSTTSVYMELSSLTNEDSAVYYCTLYDGYYVFAYWGQGTLVTVSA
VL: EIVLTQSPVTLSVTPGDSVSLSCRASRDISNNLHWFQQTSHESPRLLIKYASQSMSGIPSRFSGSGSGTDFTLSINSVETEDFGMYFCQQTNSWPYTFGGGTKLEIK
modifications: chimeric IgG1

Legend:
[1] = molecular target: T1, human lymphotoxin (TNFβ) (human) (UniProt P01374); experiment: cell-based or functional assay
T1 sequence (looked up): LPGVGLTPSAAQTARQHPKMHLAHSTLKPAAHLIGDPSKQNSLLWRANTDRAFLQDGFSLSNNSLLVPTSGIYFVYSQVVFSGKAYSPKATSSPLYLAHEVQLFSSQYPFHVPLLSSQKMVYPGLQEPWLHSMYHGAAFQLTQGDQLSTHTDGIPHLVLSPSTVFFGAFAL

[2] = molecular target: human tumor necrosis factor-alpha (hTNFα) (human) (UniProt P01375); experiment: cell-based or functional assay
Chain of human tumor necrosis factor-alpha (hTNFα) (human) (P01375 77-233): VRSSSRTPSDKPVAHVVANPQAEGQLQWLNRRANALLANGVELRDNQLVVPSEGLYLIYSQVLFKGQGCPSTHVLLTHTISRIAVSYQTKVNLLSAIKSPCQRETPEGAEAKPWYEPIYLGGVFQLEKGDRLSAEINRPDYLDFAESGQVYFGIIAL

Molecule | amount needed for the same inhibition of human TNFβ, against p75P-sf2 [1] | IL-6 secreted by FS-4 fibroblasts, 0.3 ng/ml rhTNF with 4 µg/ml antibody (no antibody: 1.36) [2] | IL-6 secreted by FS-4 fibroblasts, 1.5 ng/ml rhTNF with 4 µg/ml antibody (no antibody: 2.00) [2] | IL-6 secreted by FS-4 fibroblasts, 7.5 ng/ml rhTNF with 4 µg/ml antibody (no antibody: 2.56) [2]
p75-sf2 (complete extracellular domain of p75 fused to the IgG1 heavy chain) (from UniProt P20333 23-257) (Fc fusion) | 3 fold | – | – | –
p55-sf2 (p55 TNF receptor/IgG1 heavy chain single fusion with truncated light chain JCK) (from UniProt P19438 3-159) (Fc fusion) | 3 fold | – | – | –
B1 | – | 1.6 ng/mL | 1.96 ng/mL | 2.16 ng/mL

— US20030175837A1
